Measurements from patent US20250109215A1 (Xencor, published 2025).

What follows are binders tested against T1, human CD3 (human, UniProt P07766 23-126; P04234 22-105) (assay: SPR; human CD3-Fc (printed 'CD388-Fc', Sino Biological) covalently bound to the chip; test article passed over at 3.125, 12.5, 50 and 200 nM).
T1 construct: The legend says only human CD3
T1 sequence (P07766 23-126, chain 1 of 2): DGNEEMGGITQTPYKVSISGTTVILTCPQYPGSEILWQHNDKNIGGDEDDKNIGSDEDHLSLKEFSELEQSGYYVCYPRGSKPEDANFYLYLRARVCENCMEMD
T1 sequence (P04234 22-105, chain 2 of 2): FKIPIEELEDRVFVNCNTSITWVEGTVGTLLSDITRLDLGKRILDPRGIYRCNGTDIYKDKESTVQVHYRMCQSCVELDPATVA

Binder | Kd [nM]
XENP13677 (bispecific antibody, anti-CD3 scFv H1.30_L1.47; also called Anti-CD20 (C2B8_H1.202_L1.113) x Anti-CD3 (H1.30_L1.47) Fab-scFv-Fc) HC 1 (Fab-Fc): QVQLVQSGAEVKKPGASVKVSCKASGYTFTSYNMHWVRQAPGQRLEWMGAIYPGNGATSYSQKFQGRVTITADTSASTAYMELSSLRSEDTAVYYCARSYYMGGDWYFDVWGAGTLVTVSSASTKGPSVFPLAPSSKSTSGGTAALGCLVKDYFPEPVTVSWNSGALTSGVHTFPAVLQSSGLYSLSSVVTVPSSSLGTQTYICNVNHKPSDTKVDKKVEPKSCDKTHTCPPCPAPPVAGPSVFLFPPKPKDTLMISRTPEVTCVVVDVKHEDPEVKFNWYVDGVEVHNAKTKPREEEYNSTYRVVSVLTVLHQDWLNGKEYKCKVSNKALPAPIEKTISKAKGQPREPQVYTLPPSREEMTKNQVSLTCDVSGFYPSDIAVEWESDGQPENNYKTTPPVLDSDGSFFLYSKLTVDKSRWEQGDVFSCSVMHEALHNHYTQKSLSLSPGK HC 2 (scFv-Fc): not shown light: QIVLTQSPSSLSASVGDRVTITCRASWSVSYIHWFQQKPGKSPKPLIYATSNLASGVPVRFSGSGSGTDYTLTISSLQPEDFATYYCQQWTHNPPTFGGGTKVEIKRTVAAPSVFIFPPSDEQLKSGTASVVCLLNNFYPREAKVQWKVDNALQSGNSQESVTEQDSKDSTYSLSSTLTLSKADYEKHKVYACEVTHQGLSSPVTKSFNRGEC | 4.9
XENP14389 (bispecific antibody, anti-CD3 scFv H1.32_L1.47; also called Anti-CD20 (C2B8_H1.202_L1.113) x Anti-CD3 (H1.32_L1.47) Fab-scFv-Fc) HC 1 (Fab-Fc): QVQLVQSGAEVKKPGASVKVSCKASGYTFTSYNMHWVRQAPGQRLEWMGAIYPGNGATSYSQKFQGRVTITADTSASTAYMELSSLRSEDTAVYYCARSYYMGGDWYFDVWGAGTLVTVSSASTKGPSVFPLAPSSKSTSGGTAALGCLVKDYFPEPVTVSWNSGALTSGVHTFPAVLQSSGLYSLSSVVTVPSSSLGTQTYICNVNHKPSDTKVDKKVEPKSCDKTHTCPPCPAPPVAGPSVFLFPPKPKDTLMISRTPEVTCVVVDVKHEDPEVKFNWYVDGVEVHNAKTKPREEEYNSTYRVVSVLTVLHQDWLNGKEYKCKVSNKALPAPIEKTISKAKGQPREPQVYTLPPSREEMTKNQVSLTCDVSGFYPSDIAVEWESDGQPENNYKTTPPVLDSDGSFFLYSKLTVDKSRWEQGDVFSCSVMHEALHNHYTQKSLSLSPGK HC 2 (scFv-Fc): not shown light: QIVLTQSPSSLSASVGDRVTITCRASWSVSYIHWFQQKPGKSPKPLIYATSNLASGVPVRFSGSGSGTDYTLTISSLQPEDFATYYCQQWTHNPPTFGGGTKVEIKRTVAAPSVFIFPPSDEQLKSGTASVVCLLNNFYPREAKVQWKVDNALQSGNSQESVTEQDSKDSTYSLSSTLTLSKADYEKHKVYACEVTHQGLSSPVTKSFNRGEC | 44

The binders below were run against T2, cyno CD3 (cynomolgus monkey, UniProt Q95LI5 22-117; Q95LI8 22-105) (assay: SPR; cynomolgus monkey CD3-Fc (printed 'CD388-Fc', Sino Biological) covalently bound to the chip; test article passed over at 3.125, 12.5, 50 and 200 nM).
T2 construct: The legend says only cyno CD3; also called cynomolgus monkey CD3
T2 sequence (Q95LI5 22-117, form in doubt, chain 1 of 2): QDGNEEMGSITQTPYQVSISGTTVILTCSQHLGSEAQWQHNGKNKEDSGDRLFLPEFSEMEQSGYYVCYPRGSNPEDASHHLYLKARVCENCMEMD
T2 sequence (Q95LI8 22-105, form in doubt, chain 2 of 2): as the sequence (P04234 22-105, chain 2 of 2) above, with I5V, N15K, I20V, S32T, D33N, I34N, T64A, S74N, V83L counted along it

Binder | Kd [nM]
XENP13677 (bispecific antibody, anti-CD3 scFv H1.30_L1.47; also called Anti-CD20 (C2B8_H1.202_L1.113) x Anti-CD3 (H1.30_L1.47) Fab-scFv-Fc) HC 1 (Fab-Fc): QVQLVQSGAEVKKPGASVKVSCKASGYTFTSYNMHWVRQAPGQRLEWMGAIYPGNGATSYSQKFQGRVTITADTSASTAYMELSSLRSEDTAVYYCARSYYMGGDWYFDVWGAGTLVTVSSASTKGPSVFPLAPSSKSTSGGTAALGCLVKDYFPEPVTVSWNSGALTSGVHTFPAVLQSSGLYSLSSVVTVPSSSLGTQTYICNVNHKPSDTKVDKKVEPKSCDKTHTCPPCPAPPVAGPSVFLFPPKPKDTLMISRTPEVTCVVVDVKHEDPEVKFNWYVDGVEVHNAKTKPREEEYNSTYRVVSVLTVLHQDWLNGKEYKCKVSNKALPAPIEKTISKAKGQPREPQVYTLPPSREEMTKNQVSLTCDVSGFYPSDIAVEWESDGQPENNYKTTPPVLDSDGSFFLYSKLTVDKSRWEQGDVFSCSVMHEALHNHYTQKSLSLSPGK HC 2 (scFv-Fc): not shown light: QIVLTQSPSSLSASVGDRVTITCRASWSVSYIHWFQQKPGKSPKPLIYATSNLASGVPVRFSGSGSGTDYTLTISSLQPEDFATYYCQQWTHNPPTFGGGTKVEIKRTVAAPSVFIFPPSDEQLKSGTASVVCLLNNFYPREAKVQWKVDNALQSGNSQESVTEQDSKDSTYSLSSTLTLSKADYEKHKVYACEVTHQGLSSPVTKSFNRGEC | 5.6
XENP14389 (bispecific antibody, anti-CD3 scFv H1.32_L1.47; also called Anti-CD20 (C2B8_H1.202_L1.113) x Anti-CD3 (H1.32_L1.47) Fab-scFv-Fc) HC 1 (Fab-Fc): QVQLVQSGAEVKKPGASVKVSCKASGYTFTSYNMHWVRQAPGQRLEWMGAIYPGNGATSYSQKFQGRVTITADTSASTAYMELSSLRSEDTAVYYCARSYYMGGDWYFDVWGAGTLVTVSSASTKGPSVFPLAPSSKSTSGGTAALGCLVKDYFPEPVTVSWNSGALTSGVHTFPAVLQSSGLYSLSSVVTVPSSSLGTQTYICNVNHKPSDTKVDKKVEPKSCDKTHTCPPCPAPPVAGPSVFLFPPKPKDTLMISRTPEVTCVVVDVKHEDPEVKFNWYVDGVEVHNAKTKPREEEYNSTYRVVSVLTVLHQDWLNGKEYKCKVSNKALPAPIEKTISKAKGQPREPQVYTLPPSREEMTKNQVSLTCDVSGFYPSDIAVEWESDGQPENNYKTTPPVLDSDGSFFLYSKLTVDKSRWEQGDVFSCSVMHEALHNHYTQKSLSLSPGK HC 2 (scFv-Fc): not shown light: QIVLTQSPSSLSASVGDRVTITCRASWSVSYIHWFQQKPGKSPKPLIYATSNLASGVPVRFSGSGSGTDYTLTISSLQPEDFATYYCQQWTHNPPTFGGGTKVEIKRTVAAPSVFIFPPSDEQLKSGTASVVCLLNNFYPREAKVQWKVDNALQSGNSQESVTEQDSKDSTYSLSSTLTLSKADYEKHKVYACEVTHQGLSSPVTKSFNRGEC | 45

The binders below were run against T3, human CD123 (human, UniProt P26951 19-305, limits assumed) (assay: off-rate screen of Fab-His on a Biacore CD123 chip (Example 3), relative to 7G3 H1L1 Fab).
T3 construct: Construct on the chip is not described; also called CD123 chip
T3 sequence (looked up): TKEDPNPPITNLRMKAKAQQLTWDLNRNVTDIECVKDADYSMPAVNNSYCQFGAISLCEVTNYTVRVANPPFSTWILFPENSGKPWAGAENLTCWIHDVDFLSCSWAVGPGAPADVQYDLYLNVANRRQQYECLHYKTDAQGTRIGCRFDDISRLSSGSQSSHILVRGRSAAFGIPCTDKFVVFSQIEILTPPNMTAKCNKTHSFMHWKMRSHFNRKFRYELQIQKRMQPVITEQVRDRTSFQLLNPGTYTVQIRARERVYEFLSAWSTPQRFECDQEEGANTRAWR

Binder | Fold improvement in off-rate vs. H1L1 [fold]
13735 7G3_H1.86_L1_Fab_His (Fab, V domains shown, also called XENP13735; copies: 1 + 1) VH: QVQLVQSGAEVKKPGASVKVSCKASGYTFTDYYMKWVRQAPGQSLEWMGDIIPSNGATFYNQKFKGKATLTVDRSTSTAYMELSSLRSEDTAVYYCTRSHLLRASWFAYWGQGTLVTVSS VL: DFVMTQSPDSLAVSLGERATINCKSSQSLLNSGNQKNYLTWYQQKPGQPPKLLIYWASTRESGVPDRFTGSGSGTDFTLTISSLQAEDVAVYYCQNDYSYPYTFGGGTKLEIKR | 4.61
13740 7G3_H1.91_L1_Fab_His (Fab, V domains shown, also called XENP13740; copies: 1 + 1) VH: QVQLVQSGAEVKKPGASVKVSCKASGYTFTDYYMKWVRQAPGQSLEWMGDIIPSNGATFYNQKFQGRVTMTVDRSTSTAYMHLSSLRSEDTAVYYCTRSHLLRASWFAYWGQGTLVTVSS VL: DFVMTQSPDSLAVSLGERATINCKSSQSLLNSGNQKNYLTWYQQKPGQPPKLLIYWASTRESGVPDRFTGSGSGTDFTLTISSLQAEDVAVYYCQNDYSYPYTFGGGTKLEIKR | 1.04
13737 7G3_H1.88_L1_Fab_His (Fab, V domains shown, also called XENP13737; copies: 1 + 1) VH: QVQLVQSGAEVKKPGASVKVSCKASGYTFTDYYMKWVRQAHGQSLEWMGDIIPSNGATFYNQKFQGRVTMTVDRSTSTAYMELSSLRSEDTAVYYCTRSHLLRASWFAYWGQGTLVTVSS VL: DFVMTQSPDSLAVSLGERATINCKSSQSLLNSGNQKNYLTWYQQKPGQPPKLLIYWASTRESGVPDRFTGSGSGTDFTLTISSLQAEDVAVYYCQNDYSYPYTFGGGTKLEIKR | 0.96
13738 7G3_H1.89_L1_Fab_His (Fab, V domains shown, also called XENP13738; copies: 1 + 1) VH: QVQLVQSGAEVKKPGASVKVSCKASGYTFTDYYMKWVRQAPGQSLEWIGDIIPSNGATFYNQKFQGRVTMTVDRSTSTAYMELSSLRSEDTAVYYCTRSHLLRASWFAYWGQGTLVTVSS VL: DFVMTQSPDSLAVSLGERATINCKSSQSLLNSGNQKNYLTWYQQKPGQPPKLLIYWASTRESGVPDRFTGSGSGTDFTLTISSLQAEDVAVYYCQNDYSYPYTFGGGTKLEIKR | 1.29
13855 7G3_H1_L1.57_Fab_His (Fab, V domains shown, also called XENP13855) VH: QVQLVQSGAEVKKPGASVKVSCKASGYTFTDYYMKWVRQAPGQSLEWMGDIIPSNGATFYNQKFQGRVTMTVDRSTSTAYMELSSLRSEDTAVYYCTRSHLLRASWFAYWGQGTLVTVSS VL: DFVMTQSPDSLAVSLGERATINCKSSQSLLNTGNQKNYLTWYQQKPGQPPKLLIYWASTRESGVPDRFTGSGSGTDFTLTISSLQAEDVAVYYCQNDYSYPYTFGGGTKLEIKR | 0.84
13741 7G3_H1.92_L1_Fab_His (Fab, V domains shown, also called XENP13741; copies: 1 + 1) VH: QVQLVQSGAEVKKPGASVKVSCKASGYTFTDYYMKWVRQAPGQSLEWMGDIIPSNGATFYNQKFQGRVTMTVDRSTSTAYMELSSLTSEDTAVYYCTRSHLLRASWFAYWGQGTLVTVSS VL: DFVMTQSPDSLAVSLGERATINCKSSQSLLNSGNQKNYLTWYQQKPGQPPKLLIYWASTRESGVPDRFTGSGSGTDFTLTISSLQAEDVAVYYCQNDYSYPYTFGGGTKLEIKR | 1.89
13743 7G3_H1.94_L1_Fab_His (Fab, V domains shown, also called XENP13743; copies: 1 + 1) VH: QVQLVQSGAEVKKPGASVKVSCKASGYTFTDYYMKWVKQSHGKSLEWMGDIIPSNGATFYNQKFQGRVTMTVDRSTSTAYMELSSLRSEDTAVYYCTRSHLLRASWFAYWGQGTLVTVSS VL: DFVMTQSPDSLAVSLGERATINCKSSQSLLNSGNQKNYLTWYQQKPGQPPKLLIYWASTRESGVPDRFTGSGSGTDFTLTISSLQAEDVAVYYCQNDYSYPYTFGGGTKLEIKR | 0.65

The binders below were run against T3, human CD123 (assay: Biacore, Fab-His on CD123 (Example 3; the sheet names no assay)).

Binder | Ka [M⁻¹] | Kd [nM] | koff [s⁻¹] | kon [M⁻¹ s⁻¹]
13961 7G3_H1.107_L1_Fab_His (Fab, V domains shown, also called XENP13961) VH: QVQLQQSGAEVKKPGASVKVSCKASGYTFTDYYMKWVRQAPGQSLEWMGDIIPSNGATFYNQKFKGKATLTVDRSTSTAYMELSSLRSEDTAVYYCARSHLLRASWFAYWGQGTLVTVSS VL: DFVMTQSPDSLAVSLGERATINCKSSQSLLNSGNQKNYLTWYQQKPGQPPKLLIYWASTRESGVPDRFTGSGSGTDFTLTISSLQAEDVAVYYCQNDYSYPYTFGGGTKLEIKR | 6.79e+09 | 0.147 | 8.84e-05 | 600000
13965 7G3_H1.107_L1.57_Fab_His (Fab, V domains shown, also called XENP13965) VH: QVQLQQSGAEVKKPGASVKVSCKASGYTFTDYYMKWVRQAPGQSLEWMGDIIPSNGATFYNQKFKGKATLTVDRSTSTAYMELSSLRSEDTAVYYCARSHLLRASWFAYWGQGTLVTVSS VL: DFVMTQSPDSLAVSLGERATINCKSSQSLLNTGNQKNYLTWYQQKPGQPPKLLIYWASTRESGVPDRFTGSGSGTDFTLTISSLQAEDVAVYYCQNDYSYPYTFGGGTKLEIKR | 1.6e+10 | 0.0624 | 3.82e-05 | 612000
13963 7G3_H1.109_L1_Fab_His (Fab, V domains shown, also called XENP13963) VH: QVQLQQSGAEVKKPGASVKVSCKASGYTFTDYYMKWVKQSHGKSLEWMGDIIPSNGATFYNQKFKGKATLTVDRSTSTAYMELSSLRSEDTAVYYCARSHLLRASWFAYWGQGTLVTVSS VL: DFVMTQSPDSLAVSLGERATINCKSSQSLLNSGNQKNYLTWYQQKPGQPPKLLIYWASTRESGVPDRFTGSGSGTDFTLTISSLQAEDVAVYYCQNDYSYPYTFGGGTKLEIKR | 1.35e+10 | 0.0742 | 5.53e-05 | 745000
